Reference: US20110265202A1

Tests used:
[1] = molecular target: PrpS8 (Papaver rhoeas pollen S8 protein) on P. rhoeas pollen (Papaver rhoeas); test: cell-based or functional assay
[2] = molecular target: PrpS1-GFP fusion protein expressed in Arabidopsis thaliana pollen (line BG16) (Papaver rhoeas); test: cell-based or functional assay

Substance | % germination of P. rhoeas S1S8 pollen with both PrsS1 and PrsS8 added (29.7% with S1 alone) [1] [%] | pollen germination of BG16 Arabidopsis pollen, in vitro SI assay [2] [% reduction] | pollen viability (Evans blue) at t=2 h, BG16+PrsS1 against WT+S1 pollen [2] [times lower] | pollen viability (Evans blue) at t=4 h, BG16+PrsS1 against WT+S1 pollen [2] [times lower] | pollen viability (Evans blue) at t>8 h, BG16+PrsS1 against WT+S1 pollen [2] [times lower]
recombinant Papaver rhoeas pistil S8 protein (PrsS8) (ligand) | 1 | – | – | – | –
recombinant Papaver rhoeas pistil S1 protein (PrsS1) (ligand) | – | 50 | 35 | 53 | 45
